83 variants from the RNAGym collection of RNA variant scans (doi:10.1093/molbev/msab373) can be followed below.

B1: Azoarcus group I ribozyme (parent)
chain: GUGCCUUGCGCCGGGAAACCACGCAAGGGAUGGUGUCAAAUUCGGCGAAACCUAAGCGCCCGCCCGGGCGUAUGGCAACGCCGAGCCAAGCUUCGGCGCCUGCGCCGAUGAAGGUGUAGAGACUAGACGGCACCCACCUAAGGCAAACGCUAUGGUGAAGGCAUAGUCCAGGGAGUGGCGAAAGUCACACAAACCGG

In this data set the parent is B1. The data set can be described thus: reverse-splicing fitness (ratio to wild type); higher = more active; in vitro selection; Mg2+ level not given. Summed up: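 An in vitro group I ribozyme library with randomized positions was T7-transcribed and gel-purified. In triplicate, 10 pmol RNA in EPPS pH 7.5 was reacted with 50 pmoles of a 30-nt RNA substrate for 1 h at 37 °C across several added MgCl2 levels (1–48 mM), then stopped with EDTA. Products were reverse transcribed from a substrate-complementary primer, PCR-amplified and sequenced (HiSeq 4000). Fitness is a variant's read proportion after selection over that before, normalised to wild type.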
Take C82G A111G A120G A145G C150U U176A: the reverse-splicing fitness is 0.0115. C82G A111G A120G A145G C150U U176G: the reverse-splicing fitness amounted to 0.00823.

Consider C82G A111G A120G C150A U176C, for which the reverse-splicing fitness was determined as 0.023.

For the variant C82G A111G A120G C150A U176G, the reverse-splicing fitness stood at 0.0109. For the variant C82G A111G A120G C150A U176A, the reverse-splicing fitness was 0.0148.

Regarding C82G A111G A120G A145G C150G C169G U176A, the reverse-splicing fitness turned out to be 0.0111.

Turning to C82G A111G A120G A145G C150G C169G U176C, the reverse-splicing fitness is 0.0118. In the case of C82G A111G A120G A145G C150G C169G U176G, the reverse-splicing fitness is 0.0063.

Regarding C82G A111G A120U A145G C150A C169A, the reverse-splicing fitness was 0.00593. In the case of C82G A111G A120U A145G C150A C169U it was 0.00426. For the variant C82G A111G A120U A145G C150A C169G, the reverse-splicing fitness amounted to 0.00639. In the case of C82G A111G A120G A145C C169A U176A it was 0.0165; in that of C82G A111G A120G A145C C169A U176G, 0.00415.

C82G A111G A120G A145C C169A U176C: the reverse-splicing fitness came to 0.0114. In the case of C82G A111G A120U A145C C169G U176C it was 0.00181; in that of C82G A111G A120U A145C C169G U176G, 0.00165; in that of C82G A111G A120U A145C C169G U176A, 0.00244. For the variant C82G A111G A120G A145G C169G U176G, the reverse-splicing fitness was 0.0045. Consider C82G A111G A120G A145G C169G U176C, for which the reverse-splicing fitness is 0.0248. In the case of C82G A111G A120G A145G C169G U176A it was 0.0184. For C82G A111G A120G C169U U176C, the reverse-splicing fitness was 0.0198. C82G A111G A120G C169U U176A: the reverse-splicing fitness is 0.0199. In the case of C82G A111G A120G C169U U176G it was 0.00595; in that of C82G A111G A120U A145G C150G C169A U176A, 0.0115; in that of C82G A111G A120U A145G C150G C169A U176C, 0.0099.

Regarding C82G A111G A120U A145G C150G C169A U176G, the reverse-splicing fitness worked out at 0.00448. In the case of C82G A111G A120G A145U it was 0.0198; in that of C82G A111G A120G A145G, 0.0179; in that of C82G A111G A120U A145C C150U C169A U176C, 0.00184.

C82G A111G A120U A145C C150U C169A U176G: the reverse-splicing fitness amounted to 0.00197.

Take C82G A111G A120U A145C C150U C169A U176A: the reverse-splicing fitness was determined as 0.00272. In the case of C82G A111G A120U A145C C150A U176A it was 0.00245. In the case of C82G A111G A120U A145C C150A U176G it was 0.00169; in that of C82G A111G A120U A145C C150A U176C, 0.00344; in that of C82G A111G A120G A145U C150G U176C, 0.0158. Take C82G A111G A120G A145U C150G U176G: the reverse-splicing fitness turned out to be 0.00436.

Turning to C82G A111G A120G A145U C150G U176A, the reverse-splicing fitness amounted to 0.00801. In the case of C82G A111G A120U A145G C150U C169G U176G, the reverse-splicing fitness is 0.00241. On to C82G A111G A120U A145G C150U C169G U176A, for which the reverse-splicing fitness stood at 0.0105. In the case of C82G A111G A120U A145G C150U C169G U176C it was 0.00595; in that of C82G A111G A120U A145G C150G U176A, 0.00561; in that of C82G A111G A120U A145G C150G U176G, 0.00375. C82G A111G A120U A145G C150G U176C: the reverse-splicing fitness worked out at 0.00834. In the case of C82G A111G A120G C169G it was 0.0219; in that of C82G A111G A120G C169A, 0.0124. Take C82G A111G A120G C169U: the reverse-splicing fitness came out at 0.0144. In the case of C82G A111G A120U A145C C169A U176G it was 0.00182; in that of C82G A111G A120U A145C C169A U176C, 0.00168; in that of C82G A111G A120U A145C C169A U176A, 0.00186.

C82G A111G A120G A145U C169U U176A: the reverse-splicing fitness was 0.0191.

As to C82G A111G A120G A145U C169U U176C, the reverse-splicing fitness turned out to be 0.0161. For the variant C82G A111G A120G A145U C169U U176G, the reverse-splicing fitness was determined as 0.00384. Take C82G A111G A120G C150G U176A: the reverse-splicing fitness was 0.0085. In the case of C82G A111G A120G C150G U176C it was 0.0157; in that of C82G A111G A120G C150G U176G, 0.00387; in that of C82G A111G A120G A145G C150U C169U U176A, 0.0177. In the case of C82G A111G A120G A145G C150U C169U U176G it was 0.00668. In the case of C82G A111G A120G A145G C150U C169U U176C it was 0.0177; in that of C82G A111G A120U A145C C150A C169A, 0.00228. Regarding C82G A111G A120U A145C C150A C169G, the reverse-splicing fitness is 0.00251. Regarding C82G A111G A120U A145C C150A C169U, the reverse-splicing fitness turned out to be 0.00246. In the case of C82G A111G A120G A145G C150G C169U U176C it was 0.0129; in that of C82G A111G A120G A145G C150G C169U U176A, 0.0127; in that of C82G A111G A120G A145G C150G C169U U176G, 0.00812. In the case of C82G A111G A120G A145G C150G C169U it was 0.00986; in that of C82G A111G A120G A145G C150G C169A, 0.00957; in that of C82G A111G A120G A145G C150G C169G, 0.00845. On to C82G A111G A120G A145U C150A C169U U176G, for which the reverse-splicing fitness is 0.00582. In the case of C82G A111G A120G A145U C150A C169U U176A it was 0.0196; in that of C82G A111G A120G A145U C150A C169U U176C, 0.0177; in that of C82G A111G A120U A145C C150G U176A, 0.00327.

With C82G A111G A120U A145C C150G U176G, the reverse-splicing fitness came out at 0.00247. For C82G A111G A120U A145C C150G U176C, the reverse-splicing fitness worked out at 0.00396.

Consider C82G A111G A120G A145U C150G C169G U176G, for which the reverse-splicing fitness was 0.00457.

For C82G A111G A120G A145U C150G C169G U176A, the reverse-splicing fitness amounted to 0.00751.

Regarding C82G A111G A120G A145U C150G C169G U176C, the reverse-splicing fitness was found to be 0.00676.

For C82G A111G A120U A145C C150A C169A U176A, the reverse-splicing fitness was 0.00209. With C82G A111G A120U A145C C150A C169A U176G, the reverse-splicing fitness worked out at 0.00204. With C82G A111G A120U A145C C150A C169A U176C, the reverse-splicing fitness was found to be 0.00213. In the case of C82G A111G A120U A145G C150U C169A U176C it was 0.00519; in that of C82G A111G A120U A145G C150U C169A U176A, 0.00839; in that of C82G A111G A120U A145G C150U C169A U176G, 0.00254. In the case of C82G A111G A120G A145U C150A U176G it was 0.00563.
